In PMC10523585 (Molecular cell, 2023):

Assays:
Test in all cases: cryo-EM structure
[1] = molecular target: Rpn1 (non-ATPase, ubiquitin-binding subunit of the human 26S proteasome) (human, UniProt Q13200 1-908)
[2] = molecular target: Rpt5 (ATPase subunit of the human 26S proteasome) (human, UniProt P17980 1-439)
[3] = molecular target: T1, α7 (CP subunit of the human 26S proteasome) (human, UniProt P25788 2-255)
T1 sequence: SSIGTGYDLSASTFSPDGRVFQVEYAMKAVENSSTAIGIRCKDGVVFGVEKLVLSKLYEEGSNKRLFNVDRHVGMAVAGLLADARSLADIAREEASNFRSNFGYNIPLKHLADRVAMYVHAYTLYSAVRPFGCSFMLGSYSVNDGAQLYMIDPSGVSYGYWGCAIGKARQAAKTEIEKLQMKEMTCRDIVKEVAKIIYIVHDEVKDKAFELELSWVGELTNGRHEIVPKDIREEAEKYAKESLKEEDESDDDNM

[4] = molecular target: Rpt1 (ATPase subunit of the human 26S proteasome) (human, UniProt P35998 1-433)
Sequence of Rpt1 (ATPase subunit of the human 26S proteasome) (P35998 whole entry): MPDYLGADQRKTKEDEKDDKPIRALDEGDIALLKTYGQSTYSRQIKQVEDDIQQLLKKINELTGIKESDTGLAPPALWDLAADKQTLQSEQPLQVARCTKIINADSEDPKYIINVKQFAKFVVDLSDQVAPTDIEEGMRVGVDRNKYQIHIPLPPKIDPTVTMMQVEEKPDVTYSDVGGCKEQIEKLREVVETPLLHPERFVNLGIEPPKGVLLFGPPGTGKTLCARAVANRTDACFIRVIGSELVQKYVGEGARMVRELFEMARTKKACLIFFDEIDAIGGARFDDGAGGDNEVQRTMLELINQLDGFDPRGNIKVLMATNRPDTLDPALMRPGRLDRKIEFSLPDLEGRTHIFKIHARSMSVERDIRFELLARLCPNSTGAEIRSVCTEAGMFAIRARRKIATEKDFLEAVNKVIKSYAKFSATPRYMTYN

Sequence of Rpn1 (non-ATPase, ubiquitin-binding subunit of the human 26S proteasome) (Q13200 whole entry): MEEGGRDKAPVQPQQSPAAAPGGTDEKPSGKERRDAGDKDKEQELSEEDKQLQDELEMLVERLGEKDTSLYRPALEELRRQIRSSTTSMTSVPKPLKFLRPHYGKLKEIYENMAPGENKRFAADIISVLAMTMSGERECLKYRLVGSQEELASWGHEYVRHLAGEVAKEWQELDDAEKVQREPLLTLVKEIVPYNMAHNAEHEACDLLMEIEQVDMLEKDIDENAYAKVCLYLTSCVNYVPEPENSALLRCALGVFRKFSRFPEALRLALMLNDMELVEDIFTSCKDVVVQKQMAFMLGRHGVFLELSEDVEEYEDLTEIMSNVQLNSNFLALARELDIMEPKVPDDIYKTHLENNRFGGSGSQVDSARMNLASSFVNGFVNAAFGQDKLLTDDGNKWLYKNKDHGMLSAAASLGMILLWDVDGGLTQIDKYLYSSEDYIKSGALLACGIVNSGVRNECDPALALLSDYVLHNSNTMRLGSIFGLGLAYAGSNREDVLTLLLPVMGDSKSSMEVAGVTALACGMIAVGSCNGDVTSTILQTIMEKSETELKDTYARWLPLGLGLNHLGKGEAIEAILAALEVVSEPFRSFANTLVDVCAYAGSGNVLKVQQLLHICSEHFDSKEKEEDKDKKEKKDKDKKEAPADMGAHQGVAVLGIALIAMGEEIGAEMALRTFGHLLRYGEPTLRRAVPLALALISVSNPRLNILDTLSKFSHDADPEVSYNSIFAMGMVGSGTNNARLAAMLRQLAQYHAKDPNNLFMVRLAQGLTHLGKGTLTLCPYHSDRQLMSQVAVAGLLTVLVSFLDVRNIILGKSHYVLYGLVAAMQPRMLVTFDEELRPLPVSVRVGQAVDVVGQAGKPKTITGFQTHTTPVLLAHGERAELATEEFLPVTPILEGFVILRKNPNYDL
Sequence of Rpt5 (ATPase subunit of the human 26S proteasome) (P17980 whole entry): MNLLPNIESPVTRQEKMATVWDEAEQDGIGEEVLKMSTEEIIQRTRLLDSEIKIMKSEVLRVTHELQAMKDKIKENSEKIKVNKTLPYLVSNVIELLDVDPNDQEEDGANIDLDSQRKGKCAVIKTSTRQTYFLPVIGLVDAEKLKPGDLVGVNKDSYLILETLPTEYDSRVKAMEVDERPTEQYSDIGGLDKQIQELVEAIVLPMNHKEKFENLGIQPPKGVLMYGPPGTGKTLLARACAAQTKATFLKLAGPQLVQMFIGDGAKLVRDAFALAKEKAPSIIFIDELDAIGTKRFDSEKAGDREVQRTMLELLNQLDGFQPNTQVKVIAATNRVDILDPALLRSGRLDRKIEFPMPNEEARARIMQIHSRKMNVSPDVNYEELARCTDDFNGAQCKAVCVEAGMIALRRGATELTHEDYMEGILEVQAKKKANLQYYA

binding result [1]: binds
binding result [2]: binds
binding result [3]: binds
binding result [4]: binds
B1: ZFAND5 (recombinant mouse ZFAND5, wild type) (natural protein, UniProt O88878 1-213, looked up)
chain: MAQETNQTPGPMLCSTGCGFYGNPRTNGMCSVCYKEHLQRQQNSGRMSPMGTASGSNSPTSDSASVQRADAGLNNCEGAAGSTSEKSRNVPVAALPVTQQMTEMSISREDKITTPKTEVSEPVVTQPSPSVSQPSSSQSEEKAPELPKPKKNRCFMCRKKVGLTGFDCRCGNLFCGLHRYSDKHNCPYDYKAEAAAKIRKENPVVVAEKIQRI
